Data set [1] can be described thus: Clearance of IV-injected I-Aβ from serum. Particulars: linear regression, n = 7–10 per group. It is filed as in vivo, CD-1 mice. As for the experimental part: All animal protocols were performed in an Association for Assessment and Accreditation of Laboratory Animal Care accredited facility and approved by the animal committee of the VA and St Louis University Medical Centers. Male CD-1 mice were purchased from Charles River and kept on a 12/12 hour light/dark cycle with food and water freely available. Mice at 6–8 weeks of age were treated with 3 intraperitoneal (IP) injections of 3 mg/kg LPS from Salmonella typhimurium (Sigma, St. Louis, MO, USA) dissolved in sterile normal saline over a 24-hour period as previously described. […]
In BSA/lactated Ringer’s solution 3 × 10^5 CPM of ^131I-Aβ and ^125I-albumin were prepared and injected together into the jugular vein of mice treated with LPS or saline. […] Blood was allowed to clot, spun at 5,000 g to separate serum from blood cells, and 50 μl serum was counted along with harvested tissues from liver and kidney in a gamma counter. The rate of I-Aβ tissue uptake was determined using multiple-time regression analysis. For this analysis, experimental clock time was re-expressed as exposure time to correct for clearance of I-Aβ from the blood. Exposure time was calculated from the formula: […]
Serum clearance was calculated by plotting the log serum CPM/50 μl versus experimental clock time. […]

Data set [2] is described as follows: Aβ uptake by liver and kidney, multiple-time regression analysis. It is filed as in vivo, CD-1 mice. To be noted: IV, mean ± SEM, n = 7–10 per group. On the procedure:
All animal protocols were performed in an Association for Assessment and Accreditation of Laboratory Animal Care accredited facility and approved by the animal committee of the VA and St Louis University Medical Centers. Male CD-1 mice were purchased from Charles River and kept on a 12/12 hour light/dark cycle with food and water freely available. Mice at 6–8 weeks of age were treated with 3 intraperitoneal (IP) injections of 3 mg/kg LPS from Salmonella typhimurium (Sigma, St. Louis, MO, USA) dissolved in sterile normal saline over a 24-hour period as previously described. Briefly, the first injection was given in the morning, and the second and third injections were given at 6 and 24 hours following the first injection, respectively. All mice were studied at 28 hours following the first injection. […] No mice died as a result of this treatment regimen. A total of 225 mice were used in this study: 90 were used for detection of oxidative modifications to LRP-1 and Pgp measurement, 30 for LRP-1 measurement, 44 for measurement of Aβ and a2M vascular sequestration, 20 for CSF bulk flow measurement, 21 for measurement of peripheral Aβ clearance, and 20 for primary endothelial cell culture.
In BSA/lactated Ringer’s solution 3 × 10^5 CPM of ^131I-Aβ and ^125I-albumin were prepared and injected together into the jugular vein of mice treated with LPS or saline. The liver, the left kidney, and blood from the carotid artery were collected at 1, 2, 5, 10, and 20 minutes. Blood was allowed to clot, spun at 5,000 g to separate serum from blood cells, and 50 μl serum was counted along with harvested tissues from liver and kidney in a gamma counter. The rate of I-Aβ tissue uptake was determined using multiple-time regression analysis. For this analysis, experimental clock time was re-expressed as exposure time to correct for clearance of I-Aβ from the blood. Exposure time was calculated from the formula:
(5) Exposuretime=∫0tCpttdt/Cpt
where t equals experimental clock time, Cp represents the level of radioactivity in the serum over time and Cpt is the level of radioactivity in the serum at time t. Tissue/serum ratios were then calculated from the following formula:
(6) Tissue/serumratio=serumvolumetissueCPM/tissueweightserumCPM
To correct for alterations in vascular space and/or vascular permeability which occur with LPS administration, tissue/serum ratios for I-albumin were subtracted from those for I-Aβ. The corrected tissue/serum ratios were plotted against exposure time calculated for Aβ, and the unidirectional influx constant determined from the slope of the linear portion of the curve.

The test system of data set [3] is murine BBB. To be noted: compared with human Aβ1-42; cited from earlier work. The source says: In this study we have shown that peripheral administration of LPS inhibits CSF bulk flow, central and peripheral clearance of Aβ, and increases vascular sequestration of Aβ. […] Al ...
Where [4] appears, read: LPS-treated mice (3 x 3 mg/kg IP, studied at 28 h), corrected for I-albumin.

No end group written: not given here.

As for “I-Aβ: Murine Aβ1-42 (Bachem) radioactively labeled with 125I or 131I by the chloramine-T method (DAEFGHDSGFEVRHQKLVFFAEDVGSNKGAIIGLMVGGVVIA; also: 125I or 131I radiolabel, residue not given here; UniProt P12023 672-713, looked up)”, the half-life in serum worked out at 8.4 min in data set [1] (LPS-treated mice (3 x 3 mg/kg IP at 0, 6, 24 h, studied at 28 h), IV injection, serum at 1-20 min) and 4 min in data set [1] (saline-treated mice, IV (jugular vein) injection, serum at 1, 2, 5, 10, 20 min, log serum CPM/50 μl vs time). Further, the “unidirectional influx rate of Aβ into kidney (Ki)” value was 0.5608 ± 3.859 µL/g/min in data set [2] (setting [4]) and 41.26 ± 10.46 µL/g/min in data set [2] (saline-treated mice, corrected for I-albumin). For the same substance, the “unidirectional influx rate of Aβ into liver (Ki)” value in data set [2] (setting [4]) was 8.356 ± 6.433 µL/g/min; in data set [2] (saline-treated mice, tissue/serum ratio corrected for I-albumin vs exposure time), 34.67 ± 3.444 µL/g/min.
Turning to “murine Aβ1-42: Murine amyloid beta 1-42 purchased from Bachem (DAEFGHDSGFEVRHQKLVFFAEDVGSNKGAIIGLMVGGVVIA; Amyloid-beta protein 42; UniProt P12023 672-713, looked up)”, in data set [3], the “rate of clearance across the murine BBB” value was “cleared at a faster rate across the murine BBB than human Aβ1-42”.

The values are drawn from paper PMC3410805, “Lipopolysaccharide impairs amyloid beta efflux from brain: altered vascular sequestration, cerebrospinal fluid reabsorption, peripheral clearance and transporter function at the blood–brain barrier” (Journal of Neuroinflammation, 2012).
